Consider 2 molecules from publication PMC12450071 (Cell reports, 2025).

This experiment deals with JUNV GP1 (receptor-binding domain), subunit within the GPC on PV membranes (Junin mammarenavirus, strain MC2 …, UniProt P26313). Kind of experiment: cryo-EM structure. Particulars: one partner purified.
Chain of JUNV GP1 (receptor-binding domain), subunit within the GPC on PV membranes (P26313 whole entry, looked up, the tested form may be a part): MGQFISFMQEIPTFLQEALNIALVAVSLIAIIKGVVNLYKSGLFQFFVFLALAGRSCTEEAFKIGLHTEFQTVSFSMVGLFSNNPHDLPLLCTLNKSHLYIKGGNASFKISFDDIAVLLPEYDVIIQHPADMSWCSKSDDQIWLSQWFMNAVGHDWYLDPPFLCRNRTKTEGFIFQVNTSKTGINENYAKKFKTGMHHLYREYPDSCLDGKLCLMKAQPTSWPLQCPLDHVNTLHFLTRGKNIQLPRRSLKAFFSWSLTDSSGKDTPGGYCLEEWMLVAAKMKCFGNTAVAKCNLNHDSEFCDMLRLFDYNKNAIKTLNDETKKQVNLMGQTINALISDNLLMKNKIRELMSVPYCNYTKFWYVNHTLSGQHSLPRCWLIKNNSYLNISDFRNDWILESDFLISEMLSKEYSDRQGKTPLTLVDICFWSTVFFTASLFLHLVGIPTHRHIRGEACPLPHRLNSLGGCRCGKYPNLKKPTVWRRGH

B1: GFP-fused Fab of the neutralizing antibody CR1-28 (Fab, V domains shown)
VH: QVQLVESGGGVVQPGRSLRLSCAASGFTFSSSAMHWVRQAPGKGLEWVAVIWSDGSNENYADSVKGRFTISRDNSKNTLYLQMSSLRAEDTAVYYCATDKTYVSGYTSTWYYFNYWGQGTLVTVSG
VL: DIQMTQSPSTLSASVGDRVTITCRASQSIDNWLAWYQQKPGKAPKLLIYTASRLESGVPSRFSGSGSGTEFTLTISSLQPDDFATYYCQHRTFGQGTKVEIK
notes: also called CR1–28Fab; GFP-fused CR1–28Fab; source: HEK293T, transfected, purified from culture media (Ni-NTA)
Turning to B1, the binding result is on record as “binds”.

B2: GB03-BE08 (J199) Fab (Fab, V domains shown)
VH: VALVESGGGLVQPGGSLKLSCASGASFSNAGMSWVRQTPDRRLELVAAINRDGDITYHPDSVKGRFTISRDNAKNTLYLQMSSLKSEDTAMYYCAREDYYGLYFYVMDYWGQGTSVTVA
VL: QIVLTQSPAIMSASPGEKVTITCSASSIVSYMHWFQQKPGTSPKLWIYGTSNLASGVPARFSGSGSGTSYSLTISRMEAEDAATYYCQQRNSYPPTFGGGTKLEIK
notes: source: bought: BEI Resources (J199), ficin digested, dialyzed into TBS pH 8
Regarding B2, the binding result is “binds”.
